Source: the nanobody polyreactivity screen of Harvey et al. (2022)

Assay: yeast display, Sf9 membrane polyspecificity reagent, FACS + sequencing; frameworks hold sequencing errors
In short: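 In a synthetic yeast display library (Saccharomyces cerevisiae BJ5465), nanobody expression was induced with galactose for 36–48 hours. FACS gates were set low and high (top ~1%) using anti-HA fluorescence for expression and streptavidin fluorescence for binding of the Sf9 membrane reagent. Each polyreactivity label is drawn from the gate of origin.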

QVQLVESGGGLVQAGGSLRLSCAASGRTFLPNDMGWYRQAPGKERELVAAITDSGGDTYYADSVKGRFTISRDNAKNTVYLQMNSLKPEDTAVYYCAADYYYYGSYYPVEYWGQGTQVTVSS
polyreactivity (PSR sort gate): high polyreactivity

QVKLVESGGGLVQAGGRLRLSCAASGFTCNVYAMGLYRQAPGKERELVADISGTGGSTYYADSVKGRFTISRDNAKNTVYLQMNSLKPEDTAVYYCSSGTRNFDFWGQGTQVTVSS
polyreactivity (PSR sort gate): high polyreactivity

QVQLVESGGGLLQAGGSLRLSCAASGRTFYHYTMGWYRQAPGKERELVARITRRVGSTYYADSVKGRFTISRDNAKNIVYLQMNSLKPEDTAVYYCNSKSGVYRYLLDYWGQGTQVTVSS
polyreactivity (PSR sort gate): high polyreactivity

QVQLVESGGGLVQAGGSLRLSCAASGSILPYNAMGWYRQAPGKERELVASISRGGGTNYADSVKGRFTISRDNAKNTVYLQMNSLKPEDTAVYYCAARTLRVDYDSHWYSLVDYWGQGTQVTVSS
polyreactivity (PSR sort gate): low polyreactivity

QVQLVESGGGLVQAGGSLRLSCAASGRTFGFYAMGWYRQAPGKERELVAGINNRGSGTYYADSVKGRFTISRDNAKNTVYLLMNSLKPEDTAVYYCAAGRRAKSRTWVNIRYDYWGQGTQVTVST
polyreactivity (PSR sort gate): high polyreactivity

QVQLVESGGGLVQAGGSLRITCAGSGRTFFGYAMGWYRQAPGKERELVAAITRGGSTNYADSVKGRFTISLDNGKNTLYLQMNSLKPEDSAVYYCAVGVPTTFKNRRYFRMDYWGQGTQGTVSS
polyreactivity (PSR sort gate): high polyreactivity

QFQLVESGGGLVQAGGSIRSSCAASGIIFWGNAMGWYRQAPGKESELVATITGRGGSTYYADSVKGRFTISRDNAKNTVYLQMNSLKPEDTAVYYCNADSSRYYRALEYWGQGTQVTVSS
polyreactivity (PSR sort gate): low polyreactivity

QVQLVESGGGLVQAGGSLRLSCAASGIIFSGYVMGWYGQAPGKERELVAAISRSGGRTFYADSVKGRFTISRDNAMNTVYLQMNSLKPEDTAVYYCAKVPSYVRGHGYQYDHWGQGTQVTVSS
polyreactivity (PSR sort gate): high polyreactivity

QVQLVESGGGLVQAGGSLRLSCAASGSTFYYYVMGWYRQAPGKERELVAAISSGGHTNYADSVKGRFTISRDNAKNTVYLQMNILKPEDTAVYYCAAKPWRGTLLRYGYWGQGTQVTVSS
polyreactivity (PSR sort gate): high polyreactivity

QVQLQESGGGLVQAGASLRLSCAASGSIYDDTYMGSYRQAPGKERELVATIDSGSTTNYADSVKGRITISRDNEKNTVYLQMNSLKPEDSAVYYCAAADSHIDYFDYWGQGTQVTVSS
polyreactivity (PSR sort gate): low polyreactivity

QVQLVESGGGLVQAGGSLRLSCAASGSTFVPNAMGWYRQAPGKERELVAGISWSGGGTSYADSVKGRFTISRDNAKNTVYLQMNSLKPEDTAVYYCAVVGYEQNEYDYWGQGTQVTVSS
polyreactivity (PSR sort gate): low polyreactivity

QVQLVESGGGLVQAGGSLRLSCAASGFTFFYNAMGWYRQAPGKEREFVAAISGRGGTTYYADSVKGRFTISRDNAKNTVYLQMNSLKPEDTAVYYCNAGSSPIRQYYGQVWKKGGYWGQGTQVTVSS
polyreactivity (PSR sort gate): high polyreactivity

QVQLVESGGGLVQAGGSLRLSCAASGRTFVIYAMGWYRQAPGKEREFVAAISRSGGSTYYADSVKGRFTISRDNAKNTVYLQMNSLKPEDTAVYYCNTRTPYWFKSDYWGQGTQVTVSS
polyreactivity (PSR sort gate): low polyreactivity

QVQLVESGGGLVQAGGSLRLSCAASGSIFRDYAMGWYRPAPGKERELVAAISSGVSTNYADSVKGRFSISRDNAKNSVYLKMNSLIPEDTAVYYCNTDKYSESFRSYEYWGQGTQVTVSS
polyreactivity (PSR sort gate): low polyreactivity

QVQLVESGGGLVQAGGSLRLSCAASGSTFDYNSMGWYRQAPGKERELVATINDSGGNTYYADSVKGRFTISRDNAKNTVYLQMNSLKPEDTAVYYCATVGYLYTPVVVTWWDWGDYWGQGTQVTVSS
polyreactivity (PSR sort gate): low polyreactivity

QVQLVESGGGLVQTGGSLRLSCAASGSTFYLYTMGWYRQAPGKERELVAAISGRDGSTYYADSVKGRFTISRDNAKNTVYLQMNSLKPEDTAVYYCAADPGYTYVHVTYYYWGQGTQVTVSS
polyreactivity (PSR sort gate): low polyreactivity

QVQLVESGGGLVQAGGSLRLSCAASGFTFAFYTMGWYRQAPGKERELVAGITRSGTNTYYADSVKGRFTISRDNSKNTVYLQMNSLKPEDTSVYYCNADPRTGWYKYDYWGQGTQVTVSS
polyreactivity (PSR sort gate): high polyreactivity

QVQLVESGGGLVQAGGSLRLSCAASGFIFSTNAMGWYRQAPGKERELVAAISRRGGNTYYADSVKGRFTISRDNAKNTVYLQMNSLKPEDTAVYYCNAVFRSGGLDYWGQGTQVTVSS
polyreactivity (PSR sort gate): high polyreactivity

QVQLVESGGGLVQAGGSLRLSCAASGRIFGYNAMGWYRQAPGKERELVATISGRGGSTYYADSVKGRFTISRDNAKNTVYLQMNSLKPEDTAVYYCNAKRKYGRFPKKYYYWGQGTQVTVSS
polyreactivity (PSR sort gate): high polyreactivity

QVHLQESGGGLVQAGGSLRLSCAASGYITLAQTIGWYRQAPGQEREFVASIALGSSTYYTDSVKGSFTISRDNAKTTVYLQMNSLKPEDTAVYYCAARVGSSYAHDYWGQGTQVTVSS
polyreactivity (PSR sort gate): low polyreactivity

QVQLVESGGGLVQARGSLRLSCAASGLIFKYNVMGWYRQAPGTERELVAAITWGGTRTYYADSVKGRFTISRDNAKNTVYLQMNSLKPEDTAVYYCARSHWTWLLIYIGAQDYDYWGQGTQVTVSS
polyreactivity (PSR sort gate): low polyreactivity

QVQLVESGGGLVQAGGSLRLSCAASGRTFLIYAMGWYRQAPGKERELVAAINNGGSTYYADSVKGRFTISRDNAKNTVYLQMNSLKPEDTAVYYCAARQIRATRYYYWGQGTQVTVSS
polyreactivity (PSR sort gate): high polyreactivity

QVQLVESGGGLVQAGGSLRLSCAASGSTFRTYAKGWYRQAPGKERELVASITRRGGRTYYADSVKGRFTISRDNAKNTVYLQMYSLKPEDTAVYYCAAADQQYDYWGQGTQVTVTS
polyreactivity (PSR sort gate): high polyreactivity

QVQLVESGGGLVQAGGNLRLSCAASGNIFYVYAMGWYRQAPGKERELVAAITRSGGRTYYADSVKGRFTISRDNAKNTVYLQMNSLKPEETAVYYCAADRGVTRQKMDYWGQGTQVTVSS
polyreactivity (PSR sort gate): low polyreactivity

QVQLVESGGGLVQAGGSLRLSCAASGRIFPYNVMGWYRQAPGKERELVAAISSGGTTDYADSVKGRFTISRDNAKNTVYLQMNSLKPEDTAVYYCAATYVYWTWGYDYWGQGTQVTVSS
polyreactivity (PSR sort gate): low polyreactivity

QVQLVESGGGLVQAGGSLRLSCAASGRTFPSYTMGWYRQAPGKERELVAPNDGGGDTYYADSVKGRFTISRDNAKNSVYLQMKSLKPEDTAVYYCRDWYPSYWYYYYAEYDYWGQGTQVTVSS
polyreactivity (PSR sort gate): high polyreactivity

QVQLVESGGALVQAGGSLRLSCAASGNIFVYYAMGGYRQAPGKERELVAAITSDVSTYYADSVKGRFTISRDNAKNTVYLQMNSLKPEDTAVYYCATTGYGSYVIYWGQGTQVTVSS
polyreactivity (PSR sort gate): low polyreactivity

QVQLVESGGGLVQAGGSLRLSCAPSGRTFKVNDMGWYRQAPGKERELVAAINYRGGRTYYADSVKGRFTISRDNAKNNFYLQMNSLKPEDTAFYYCNAQSGVVADDYWGQGTQVTVSS
polyreactivity (PSR sort gate): high polyreactivity

QVQLVESGGGLVQAGGSLRLSCASSGSIFYRNTMGWYRQAPGKEREFVAAIRTSGGSTYYADSVKGRFTISRDNAKNTVYLQMNSLKPEDTAVYYCAAEYRYGWAYRKGGDYWGQGTQVTVSS
polyreactivity (PSR sort gate): high polyreactivity

QVQLVESGGGLVQAGGSLRLSCAASGFIYHTNAMGWYRPAPGKERELVAAISDSADITHYADSVKGRFTISRDYAKNTVYLQMNSLKPEDTAVYYCNTTGDPPAYDFAFEDWGQGTQVTVSS
polyreactivity (PSR sort gate): low polyreactivity

QVQLVESGGGLVQAGGSLRLSCAASGIIFTYNAMGWSRQAPGKERELVAAISWRGGSTYYADSVKGRFTISRDNAKNTVYLQMNSLKPEDTAVYYCARYGTDHRLGYGYWGQGTQVTVSS
polyreactivity (PSR sort gate): low polyreactivity

QVQLVESGGGLVQAGGSLRLSCAASGLTFYLYAMGWYRQAPGKERELVAAISRSGGSTYYADSVKGRFTISRDNAKNTVYLQMNSLKPEDTAVYYCAAVTYYPEIRKYYYWGQGTQVTVSS
polyreactivity (PSR sort gate): high polyreactivity

QVQLVESGGGLVQAGGSLRLSCAASGRTIRWNAMGWYRQAPGKERELVAAITSRGGSTYYADSVKGRFTISRDNAKNTVYLQMNSLKPEDTAVYYCAKQPKPPPVTGYDYWGQGTQVTVSS
polyreactivity (PSR sort gate): high polyreactivity

QVQLVESGGGLVQAGGSLRLSCAASGSIFYYYAMGWYRQAPGKERELVATITSGGTTYYADSVKGRFTISRDNAKNTVYLQMISLKPEDTAVYYCAKRVKYHLYWGQGTQVTVSS
polyreactivity (PSR sort gate): low polyreactivity

QVQLVESGGGLVQAGGSLRLSCAASGRTFPGKAMGWYRQAPGKERELVAAISKSSSRTYYADSVKGRFTISRDNAKNTVYLQMNSLKAEDTAVYYCAASSFNNGHRYDYWGQGTQVTVSS
polyreactivity (PSR sort gate): high polyreactivity

QVQLVETGGGLVQAGGSLRLSCAASGSIFVRNAMGWYRQAPGKERELVAAINRDGGRTYYADSVKGRFTISRDNAKNTVYLQMNSLKPEDTAVYYCNAGGVSFEYGYWGQGTQVTVSS
polyreactivity (PSR sort gate): high polyreactivity

QVQLVESGGGLVQAGGSLRLSCAASGSTFKPYAMGWYRQAPGKERELVADISGRGGSTYYADSVKGRFTISRDNAKKTVYLQMNSLKPEDTAVFYCATYSSRQRKSSYYYWGQGTHVTVSS
polyreactivity (PSR sort gate): high polyreactivity

QVQLVESGGGLVQAGASLRLSCAASGSIFSWYTMGWYRQAPGKERELVARITTSGGTTLYADSVKGRFTISRDNAKNTVYFQMNSLKPEDTAVYYCAADRSPYWRGYVRYNYWGQGTQVTVSS
polyreactivity (PSR sort gate): high polyreactivity

QVQLVESGGGLVQAGGSLRISCAASGSTYYNAMGWYRQAPGKERELVAAFRFRSGSTYYADSVKGRFTISRDNAKNTVYLQMNSLKPEDTAVYYCAADYKRSWRYAYNYWGQGTQVTVSS
polyreactivity (PSR sort gate): high polyreactivity

QVQLVESGGGLVQAGGSLRLSCAAYGFIFIGYTMGWYRQAPGKERELVATISLGDDSTYYADSVKGRFTISRDNAKNTVYLQMNSLKPEDTAVYYCAADQIDGTTSAYDYWGQGTQVTVSS
polyreactivity (PSR sort gate): low polyreactivity

QVQLVESGGGLVQAGGSLRLSCAASGSTLPYYAMGWYRQAPGKERELVADITARGGTYYADSVKGRFTISRDNAKNTVYLQMNSLKPEDTAVYYCAAEDYWSPGYDYWGQGTQVTVSS
polyreactivity (PSR sort gate): high polyreactivity

QVQLVESGGGLVQAGGSLRLSCAASGYIFGRNAMGWYRQAPGKERELVAVSSSRGSRTYYADSVKGRFTISRDNAKNTVYLQMNSLKPEDTAVYYCAVRGVVNFDYWGQGTQVTVSS
polyreactivity (PSR sort gate): high polyreactivity

QVQLVESGGGLVQAGGSLRLSCAASGFIFNKYAMGWYRPAPGKERELVARITSSGSRTYYADSVKGRFTISRDKAKNTVYLQMISLKPEDTAVYYCNTYYHWLTMDYWGQGTQVTVSS
polyreactivity (PSR sort gate): high polyreactivity
